Article PMC8754118, “The PqsE-RhlR Interaction Regulates RhlR DNA Binding to Control Virulence Factor Production in Pseudomonas aeruginosa” (Microbiology Spectrum, 2022)

How the values were obtained:
[1] = tested on: RhlR:mBTL;PqsE (Pseudomonas aeruginosa;Pseudomonas aeruginosa); test: EMSA; settings: scale: fold higher affinity than RhlR:mBTL alone
[2] = molecular target: 6x-His-PqsE (wild type) (P. aeruginosa, UniProt P20581 1-301); test: cell-based or functional assay
[3] = molecular target: 6x-His-PqsE(E182W) (P. aeruginosa, UniProt P20581 1-301, E182W); test: cell-based or functional assay
[4] = molecular target: 6x-His-PqsE(E182W/S285W) (P. aeruginosa, UniProt P20581 1-301, E182W | S285W); test: cell-based or functional assay

Row | Molecule | binding signal [1] | bioluminescence from prhlA-luxCDABE in E. coli carrying rhlR and pqsE, 500 nM C4HSL, against the strain lacking PqsE [2] [fold] | bioluminescence from prhlA-luxCDABE in E. coli carrying rhlR and pqsE(E182W), 500 nM C4HSL, against the no-PqsE control strain [3] [fold] | bioluminescence from prhlA-luxCDABE in E. coli carrying rhlR and pqsE(E182W/S285W), 500 nM C4HSL, against the no-PqsE control strain [4] [fold]
1 | rhlA promoter EMSA probe | 5 | – | – | –
2 | RhlR bound to meta-bromo-thiolactone (RhlR:mBTL) (receptor) MRNDGGFLLWWDGLRSEMQPIHDSQGVFAVLEKEVRRLGFDYYAYGVRHTIPFTRPKTEVHGTYPKAWLERYQMQNYGAVDPAILNGLRSSEMVVWSDSLFDQSRMLWNEARDWGLCVGATLPIRAPNNLLSVLSVARDQQNISSFEREEIRLRLRCMIELLTQKLTDLEHPMLMSNPVCLSHREREILQWTADGKSSGEIAIILSISESTVNFHHKNIQKKFDAPNKTLAAAYAAALGLI | – | 42 | ~11 | ~11
